Data: publication PMC6018903

Target: OsSEC3A_C (amino acids 521-888)-NLuc (rice (Oryza sativa))
Test: split reporter (BiFC, NanoBiT); split firefly luciferase complementation, NLuc and CLuc fusions under the 35S promoter co-expressed in N. benthamiana leaves, read 3 d after infiltration

## CLuc-OsSNAP32 (natural protein)
  fold LUC activity over the negative vector controls: 15 fold
